Starred links: 1 amine or outer side, 2 acyl side, 3 side chain; linkers in the order of their positions; H or OH if unused. Non-standard residues stand in square brackets, D forms with d. Groups on a side chain read outwards from the residue. No end group written: not given here. *: point of attachment. C20 diacid = O=C(O)CCCCCCCCCCCCCCCCCCC(=O)*; C18 diacid = O=C(O)CCCCCCCCCCCCCCCCC(=O)*; γGlu = O=C(O)[C@H](CCC(=O)[*:2])N[*:1]; εLys = N[C@@H](CCCCN[*:1])C(=O)[*:2]; AEEA = NCCOCCOCC(=O)O; Aib = CC(C)(N)C(=O)O
T1: human GIP receptor (human, UniProt P48546 22-466)
T1 sequence (looked up): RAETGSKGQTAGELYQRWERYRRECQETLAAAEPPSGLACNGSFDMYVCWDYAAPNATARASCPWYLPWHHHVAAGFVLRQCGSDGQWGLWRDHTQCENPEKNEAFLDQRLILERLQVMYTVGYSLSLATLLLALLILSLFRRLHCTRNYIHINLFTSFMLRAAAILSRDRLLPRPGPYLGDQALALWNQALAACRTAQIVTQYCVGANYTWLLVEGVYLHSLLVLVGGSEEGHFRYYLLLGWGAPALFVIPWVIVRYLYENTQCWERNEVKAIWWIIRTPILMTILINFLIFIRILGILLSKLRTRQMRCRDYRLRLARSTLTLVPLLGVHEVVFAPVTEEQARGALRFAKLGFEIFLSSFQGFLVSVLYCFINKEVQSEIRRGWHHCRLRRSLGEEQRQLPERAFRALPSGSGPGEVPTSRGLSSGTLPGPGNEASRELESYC

T2: human neuropeptide Y2 receptor (human, UniProt P49146 1-381)
T2 sequence (looked up): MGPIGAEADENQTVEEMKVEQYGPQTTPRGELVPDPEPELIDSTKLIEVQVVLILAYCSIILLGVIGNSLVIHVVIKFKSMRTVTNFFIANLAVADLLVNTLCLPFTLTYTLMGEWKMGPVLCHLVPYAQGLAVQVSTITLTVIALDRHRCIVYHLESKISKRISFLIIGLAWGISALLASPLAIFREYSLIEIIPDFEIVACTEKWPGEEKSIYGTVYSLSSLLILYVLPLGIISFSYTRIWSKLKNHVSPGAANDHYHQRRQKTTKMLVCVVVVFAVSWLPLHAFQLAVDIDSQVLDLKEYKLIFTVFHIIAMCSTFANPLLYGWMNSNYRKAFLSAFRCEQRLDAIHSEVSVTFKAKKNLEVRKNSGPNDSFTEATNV


Tests used:
Assay in all cases: cell-based or functional assay
[1] = biological target: human GLP-1 receptor (human, UniProt P43220 24-463)
[2] = biological target: T1, human GIP receptor
[3] = biological target: T2, human neuropeptide Y2 receptor

EC50 hGLP1R 0.5% hP (CreLuc) [1] [nM] | EC50 hGLP1R 100% hP (CreLuc) [1] [nM] | EC50 hGIPR 0.5% hP (CreLuc) [2] [nM] | EC50 hGIPR 100% hP (CreLuc) [2] [nM] | EC50 hNPY2R 0.5% hP (CreLuc) [3] [nM] | EC50 hNPY2R 100% hP (CreLuc) [3] [nM] | Binder
0.51 | 12.6 | 0.33 | 0.8 | 18.8 | 44.7 | Y[Aib]EGTFTSDYSI[Aib]LEKQAQ[Aib]EFVEWLIK([AEEA-AEEA-γGlu-γGlu-γGlu-C18 diacid])GGPSEGASLRHYYNWLTRQRY-NH2 (also: TFA salt) [Compound 284]
0.34 | 11.6 | 1.57 | 1.54 | 15.8 | 48.8 | Y[Aib]EGTFTSDYSI[Aib]LEKQAQ[Aib]AFVEWLIKGGPEEGASLRHYYNWLTRQRY-NH2 (not fully specified (residue 28); also: TFA salt) [Compound 285]
0.27 | 6.34 | 0.34 | 2.42 | 13.3 | 45.9 | Y[Aib]EGTFTSDYSI[Aib]LEKQAQ[Aib]AFVEWLIK([AEEA-AEEA-γGlu-γGlu-γGlu-γGlu-C20 diacid])GGPSEGASLRHYYNWLTRQRY-NH2 (also: TFA salt) [Compound 287]
0.13 | 3.86 | 0.23 | 1.86 | 14.7 | 104 | Y[Aib]EGTFTSDYSI[Aib]LEKQAQ[Aib]AFIEWLIK([γGlu-γGlu-γGlu-γGlu-C20 diacid])GGPSEGASLRHYYNWLTRQRY-NH2 (also: TFA salt) [Compound 283]
0.35 | 16.7 | 0.37 | 1.82 | 20.7 | 73.7 | Y[Aib]EGTFTSDYSI[Aib]LEKQAQ[Aib]EFVEWLIK([γGlu-γGlu-γGlu-γGlu-C18 diacid])GGPSEGASLRHYYNWLTRQRY-NH2 (also: TFA salt) [Compound 276]
0.17 | 3.21 | 0.51 | 2.43 | 14.3 | 36.8 | Y[Aib]EGTFTSDYSI[Aib]LEKQAQ[Aib]AFVEWLIK([εLys-γGlu-γGlu-γGlu-γGlu-γGlu-γGlu-γGlu-C20 diacid])GGPSEGASLRHYYNWLTRQRY-NH2 (also: TFA salt) [Compound 288]
0.27 | 5.97 | 0.42 | 2.03 | 15.7 | 43.4 | Y[Aib]EGTFTSDYSI[Aib]LEKQAQ[Aib]AFVEWLIKGGPSEGASLRHYYNWLTRQRY-NH2 (not fully specified (residue 28); also: TFA salt) [Compound 286]
0.07 | 1.78 | 0.28 | 0.69 | 23 | 169 | Y[Aib]EGTFTSDYSI[Aib]LEKQAQ[Aib]AFVQWLIK([Glu-Glu-Glu-Glu-C18 diacid])GGPSEGASLRHYYNWLTRQRY-NH2 (also: TFA salt) [Compound 281]
0.56 | 13 | 0.14 | 1.38 | 17.5 | 88.6 | Y[Aib]EGTFTSDYSI[Aib]LEKQAE[Aib]AFVEWLIKGGPSEGASLRHYYNWLTRQRY-NH2 (not fully specified (residue 28); also: TFA salt) [Compound 278]
0.44 | 14.7 | 0.38 | 2.44 | 15.6 | 91.4 | Y[Aib]EGTFTSDYSI[Aib]LEKQAE[Aib]AFVEWLIK([γGlu-γGlu-γGlu-γGlu-C20 diacid])GGPSEGASLRHYYNWLTRQRY-NH2 (also: TFA salt) [Compound 280]
